Test results: paper PMC11076555, “Dishevelled2 activates WGEF via its interaction with a unique internal peptide motif of the GEF” (Communications Biology, 2024)

B1: N3^pep (peptide)
peptide: EIVLWSDIP
notes: engineered peptide, closest homologue of WGEF^pep; structure with Dvl2^PDZ in PDB 3CC0; also called engineered internal peptide N3; source: synthetic peptide, bought: Sai Biotech
B2: Human Dishevelled2 PDZ domain (domain or fragment, UniProt O14641 261-354, looked up)
chain: MSLNIITVTLNMEKYNFLGISIVGQSNERGDGGIYIGSIMKGGAVAADGRIEPGDMLLQVNDMNFENMSNDDAVRVLRDIVHKPGPIVLTVAKC
modifications: Monolith Red-maleimide 2nd generation cysteine-reactive fluorescent label (in the MST experiments)
notes: Dishevelled2 (Dvl2), human, PDZ domain; Addgene plasmid 38876 changed by a stop codon after C354 to remove the peptide fused at the C-terminus of the PDZ; Used unlabelled in the GEF assays and labelled in MST; also called Dvl2^PDZ; hDvl2^PDZ; source: E. coli Rosetta (DE3), purified (Ni-NTA, TEV cleavage, second Ni-NTA, gel filtration); not shown: His6, N-terminal, cleaved
B3: WGEF^pep (internal PDZ binding motif peptide of WGEF) (peptide)
peptide: GSTFSLWQDIP
notes: also called WGEF IPM peptide; source: synthetic peptide, bought: Sai Biotech
B4: WGEF^pepI10A (peptide)
peptide: GSTFSLWQDAP
notes: WGEF (Arhgef19), human residues 349-359 with I10A; numbers count on: the peptide (1-11); I10 is I358 of human WGEF (from the printed limits); also called Ile at P1 to Ala; source: synthetic peptide, bought: Sai Biotech
B5: WGEF^pepQ8A (peptide)
peptide: GSTFSLWADIP
notes: WGEF (Arhgef19), human residues 349-359 with Q8A; numbers count on: the peptide (1-11); Q8 is Q356 of human WGEF (from the printed limits); source: synthetic peptide, bought: Sai Biotech
B6: WGEF^pepL6A (peptide)
peptide: GSTFSAWQDIP
notes: WGEF (Arhgef19), human residues 349-359 with L6A; numbers count on: the peptide (1-11); L6 is L354 of human WGEF and L407 of Xenopus WGEF (from the printed limits); source: synthetic peptide, bought: Sai Biotech

What was measured:
[1] = target: B2; experiment: MST; 50 nM fluorescently labelled Dvl2^PDZ (Red-maleimide, cysteine reactive); peptides serially diluted 1:2 16 times from about 3.4 mM, hWGEF (330-581) 138-0.0042 uM; 25 C, 30 min incubation; 10 mM Tris-HCl pH 8, 150 mM NaCl, 2 mM DTT, 5% glycerol, 0.05% Tween20; Monolith NT.115; triplicates; details: both partners purified
human WGEF (330-581) = target: T1, human WGEF (330-581) (human, UniProt Q8IW93 330-581); experiment: as above; details: both partners purified
T1 construct: Weak-similarity guanine nucleotide exchange factor (WGEF, Arhgef19, Ephexin2), human, residues 330-581; also called hWGEF; hWGEF^330-581; not shown: GST, N-terminal, cleaved
T1 sequence (looked up): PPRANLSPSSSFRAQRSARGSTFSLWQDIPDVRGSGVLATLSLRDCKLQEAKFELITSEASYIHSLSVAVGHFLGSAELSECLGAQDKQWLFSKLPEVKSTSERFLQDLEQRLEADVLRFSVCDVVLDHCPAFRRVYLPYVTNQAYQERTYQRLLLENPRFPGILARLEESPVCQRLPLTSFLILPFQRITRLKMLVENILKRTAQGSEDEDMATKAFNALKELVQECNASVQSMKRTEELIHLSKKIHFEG

[2] = target: Xenopus laevis WGEF (330-856) (Xenopus laevis); experiment: cell-based or functional assay

Binder | Kd [1] | Kd (human WGEF (330-581)) | GEF activity of xWGEF330 (5 uM) on Mant-GDP loaded RhoA with 0, 25 and 50 uM Dvl2^PDZ; no observable change at 25 uM [2]
B1 | 54 µM | – | –
B2 | – | 7.9 µM | 4 fold
B3 | 45 µM | – | –
B4 | 56 µM | – | –
B5 | 8.5 µM | – | –
B6 | 2400 µM | – | –
